Data as given in patent US20200165324A1.

Assays:
[1] = target: BG505 D474A
[2] = target: BG505 G471A
[3] = target: BG505 K121A
[4] = target: BG505 K282A
[5] = target: BG505 L369A
[6] = target: BG505 N279A
[7] = target: BG505 N332T
[8] = target: BG505 N363A
[9] = target: BG505 R476A
[10] = target: BG505 T372A
[11] = target: BG505 T373A
[12] = target: JR-CSF Env on JR-CSF pseudovirus
[13] = target: JR-CSF N276A
[14] = target: JR-CSF N283A
[15] = target: JR-CSF N362A
[16] = target: JR-CSF R476A
[17] = target: JR-CSF S199A
[18] = target: JR-CSF S365A
[19] = target: JR-CSF T198A
[20] = target: BG505 G366A; experiment: ELISA, gp120 captured from lysed virions
[21] = target: BG505 G367A; experiment: ELISA, gp120 captured from lysed virions
[22] = target: BG505 G471A; experiment: ELISA, gp120 captured from lysed virions
[23] = target: BG505 G472A; experiment: ELISA, gp120 captured from lysed virions
[24] = target: BG505 K121A; experiment: ELISA, gp120 captured from lysed virions
[25] = target: BG505 K282A; experiment: ELISA, gp120 captured from lysed virions
[26] = target: BG505 L179A; experiment: ELISA, gp120 captured from lysed virions
[27] = target: BG505 N197A; experiment: ELISA, gp120 captured from lysed virions
[28] = target: BG505 N283A; experiment: ELISA, gp120 captured from lysed virions
[29] = target: BG505 N363A; experiment: ELISA, gp120 captured from lysed virions
[30] = target: BG505 R476A; experiment: ELISA, gp120 captured from lysed virions
[31] = target: BG505 V371A; experiment: ELISA, gp120 captured from lysed virions
[32] = target: JR-CSF D368A; experiment: ELISA, gp120 captured from lysed virions
[33] = target: JR-CSF E370A; experiment: ELISA, gp120 captured from lysed virions
[34] = target: JR-CSF G366A; experiment: ELISA, gp120 captured from lysed virions
[35] = target: JR-CSF G471A; experiment: ELISA, gp120 captured from lysed virions
[36] = target: JR-CSF G472A; experiment: ELISA, gp120 captured from lysed virions
[37] = target: JR-CSF G473A; experiment: ELISA, gp120 captured from lysed virions
[38] = target: JR-CSF K207A; experiment: ELISA, gp120 captured from lysed virions
[39] = target: JR-CSF N262A; experiment: ELISA, gp120 captured from lysed virions
[40] = target: JR-CSF N276A; experiment: ELISA, gp120 captured from lysed virions
[41] = target: JR-CSF N279A; experiment: ELISA, gp120 captured from lysed virions
[42] = target: JR-CSF N283A; experiment: ELISA, gp120 captured from lysed virions
[43] = target: JR-CSF N362A; experiment: ELISA, gp120 captured from lysed virions
[44] = target: JR-CSF R476A; experiment: ELISA, gp120 captured from lysed virions
[45] = target: JR-CSF S199A; experiment: ELISA, gp120 captured from lysed virions
[46] = target: JR-CSF S365A; experiment: ELISA, gp120 captured from lysed virions
[47] = target: JR-CSF T198A; experiment: ELISA, gp120 captured from lysed virions
[48] = target: JR-CSF T372A; experiment: ELISA, gp120 captured from lysed virions
[49] = target: JR-CSF T373A; experiment: ELISA, gp120 captured from lysed virions
[50] = target: JR-CSF gp120 captured from lysed virions (HIV isolate JR-CSF) (UniProt P20871); experiment: ELISA, gp120 captured from lysed virions
[51] = target: BG505 E370A; experiment: ELISA, gp120 captured from lysed virions
[52] = target: BG505 L369A; experiment: ELISA, gp120 captured from lysed virions
[53] = target: BG505 N279A; experiment: ELISA, gp120 captured from lysed virions
[54] = target: BG505 N332T; experiment: ELISA, gp120 captured from lysed virions
[55] = target: BG505 S364A; experiment: ELISA, gp120 captured from lysed virions
[56] = target: BG505 S365A; experiment: ELISA, gp120 captured from lysed virions
[57] = target: BG505 T372A; experiment: ELISA, gp120 captured from lysed virions
[58] = target: BG505 T373A; experiment: ELISA, gp120 captured from lysed virions
[59] = target: BG505 gp120 captured from lysed virions (HIV isolate BG505); experiment: ELISA, gp120 captured from lysed virions
[60] = target: JR-CSF V371A; experiment: ELISA, gp120 captured from lysed virions

PGT121 (antibody)
IC50, pseudovirus neutralization [1]: 0.023 µg/mL
IC50, pseudovirus neutralization [2]: 0.014 µg/mL
IC50, pseudovirus neutralization [3]: 0.026 µg/mL
IC50, pseudovirus neutralization [4]: 0.009 µg/mL
IC50, pseudovirus neutralization [5]: 0.021 µg/mL
IC50, pseudovirus neutralization [6]: 0.02 µg/mL
IC50, pseudovirus neutralization [7]: 0.019 µg/mL
IC50, pseudovirus neutralization [8]: 0.026 µg/mL
IC50, pseudovirus neutralization [9]: 0.02 µg/mL
IC50, pseudovirus neutralization [10]: 0.019 µg/mL
IC50, pseudovirus neutralization [11]: 0.017 µg/mL
IC50, pseudovirus neutralization [12]: 0.028 µg/mL
IC50, pseudovirus neutralization [13]: 0.033 µg/mL
IC50, pseudovirus neutralization [14]: 0.017 µg/mL
IC50, pseudovirus neutralization [15]: 0.026 µg/mL
IC50, pseudovirus neutralization [16]: 0.014 µg/mL
IC50, pseudovirus neutralization [17]: 0.03 µg/mL
IC50, pseudovirus neutralization [18]: 0.026 µg/mL
IC50, pseudovirus neutralization [19]: 0.046 µg/mL
EC50 [20]: 0.9 µg/mL
EC50 [21]: 4 µg/mL
EC50 [22]: 2.5 µg/mL
EC50 [23]: 1.4 µg/mL
EC50 [24]: 1 µg/mL
EC50 [25]: 1.3 µg/mL
EC50 [26]: 0.5 µg/mL
EC50 [27]: 1.3 µg/mL
EC50 [28]: 3.4 µg/mL
EC50 [29]: 2.3 µg/mL
EC50 [30]: 1 µg/mL
EC50 [31]: 1.4 µg/mL
EC50 [32]: 0.942 µg/mL
EC50 [33]: 0.933 µg/mL
EC50 [34]: 0.489 µg/mL
EC50 [35]: 0.619 µg/mL
EC50 [36]: 0.664 µg/mL
EC50 [37]: 0.46 µg/mL
EC50 [38]: 0.437 µg/mL
EC50 [39]: 0.947 µg/mL
EC50 [40]: 1.25 µg/mL
EC50 [41]: 0.535 µg/mL
EC50 [42]: 0.615 µg/mL
EC50 [43]: 0.747 µg/mL
EC50 [44]: 0.984 µg/mL
EC50 [45]: 1.91 µg/mL
EC50 [46]: 0.935 µg/mL
EC50 [47]: 0.604 µg/mL
EC50 [48]: 0.698 µg/mL
EC50 [49]: 0.643 µg/mL
EC50 [50]: 1.33 µg/mL

VRC01 (antibody)
EC50 [51]: 1.1 µg/mL
EC50 [20]: 0.7 µg/mL
EC50 [21]: 9.4 µg/mL
EC50 [23]: 0.9 µg/mL
EC50 [24]: 0.7 µg/mL
EC50 [25]: 0.6 µg/mL
EC50 [26]: 0.6 µg/mL
EC50 [52]: 1.6 µg/mL
EC50 [27]: 0.4 µg/mL
EC50 [53]: 25.4 µg/mL
EC50 [54]: 0.2 µg/mL
EC50 [29]: 0.9 µg/mL
EC50 [30]: 0.5 µg/mL
EC50 [55]: 0.4 µg/mL
EC50 [56]: 1.4 µg/mL
EC50 [57]: 0.4 µg/mL
EC50 [58]: 0.5 µg/mL
EC50 [31]: 1.3 µg/mL
EC50 [59]: 0.2 µg/mL
EC50 [42]: 0.348 µg/mL
EC50 [43]: 0.327 µg/mL
EC50 [49]: 0.456 µg/mL
EC50 [60]: 1.62 µg/mL
